Experimental data taken from US20120263722A1 (AbbVie / Abbott, published 2012).

What was measured:
[1] = biological target: T1, CD-19 on the cell surface (human, UniProt P15391 20-556); assay: flow cytometry on cells carrying the target, antibody or DVD-Ig at 2 ug/mL
T1 construct: whole, on cells
T1 sequence (looked up): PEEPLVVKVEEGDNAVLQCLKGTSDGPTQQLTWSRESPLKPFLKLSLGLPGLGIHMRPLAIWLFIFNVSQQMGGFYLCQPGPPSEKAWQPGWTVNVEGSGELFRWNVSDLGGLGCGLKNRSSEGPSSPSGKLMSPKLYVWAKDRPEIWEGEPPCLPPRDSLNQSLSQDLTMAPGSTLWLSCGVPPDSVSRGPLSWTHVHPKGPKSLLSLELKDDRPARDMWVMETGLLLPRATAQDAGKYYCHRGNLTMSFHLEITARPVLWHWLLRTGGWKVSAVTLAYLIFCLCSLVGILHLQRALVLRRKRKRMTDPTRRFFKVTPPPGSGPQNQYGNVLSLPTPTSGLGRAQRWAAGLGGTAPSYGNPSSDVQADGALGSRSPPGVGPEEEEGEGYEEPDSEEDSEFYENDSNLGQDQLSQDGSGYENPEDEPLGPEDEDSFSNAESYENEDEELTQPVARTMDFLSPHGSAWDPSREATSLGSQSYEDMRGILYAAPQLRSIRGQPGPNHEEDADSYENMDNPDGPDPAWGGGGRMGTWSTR

[2] = biological target: T2, NRP1 on the cell surface (human, UniProt O14786 22-923); assay: as above
T2 construct: whole, on cells; also called neuropilin 1

[3] = biological target: T3, CD-22 on the cell surface (human, UniProt P20273 20-847); assay: as above
T3 construct: whole, on cells

[4] = biological target: T4, Recombinant Human Neuropilin-1 (human, UniProt O14786-2 22-644, limits assumed); assay: SPR (BIACORE), N-terminal variable domain to target antigen
T4 construct: Bought reagent used in the Biacore analyses; also called NRP1; NRP-1

[5] = biological target: T5, CD-80 on the cell surface (human, UniProt P33681 35-288); assay: flow cytometry on cells carrying the target, antibody or DVD-Ig at 2 ug/mL
T5 construct: whole, on cells
T5 sequence (looked up): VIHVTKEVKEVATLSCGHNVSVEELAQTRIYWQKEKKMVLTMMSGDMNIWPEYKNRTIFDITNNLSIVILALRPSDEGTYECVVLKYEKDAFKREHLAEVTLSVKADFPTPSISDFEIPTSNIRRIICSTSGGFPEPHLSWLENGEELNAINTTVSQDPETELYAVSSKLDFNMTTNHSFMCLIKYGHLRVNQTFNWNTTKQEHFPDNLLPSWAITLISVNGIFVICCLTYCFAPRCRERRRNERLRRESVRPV

[6] = biological target: T6, EGFR on the cell surface (human, UniProt P00533 25-1210); assay: as above
T6 construct: whole, on cells; also called epidermal growth factor receptor

B1: AB006 (antibody, V domains shown)
VH: QVQLQQSGAELVRPGSSVKISCKASGYAFSSYWMNWVKQRPGQGLEWIGQIWPGDGDTNYNGKFKGKATLTADESSSTAYMQLSSLASEDSAVYFCARRETTTVGRYYYAMDYWGQGTSVTVSS
VL: DILLTQTPASLAVSLGQRATISCKASQSVDYDGDSYLNWYQQIPGQPPKLLIYDASNLVSGIPPRFSGSGSGTDFTLNIHPVEKVDAATYHCQQSTEDPWTFGGGTKLEIKR
notes: Parent antibody; also called AB006VH; AB006VL
In the case of B1, the “N-Terminal VD GEO MEAN (FACS geometric mean)” value (“N-Terminal VD GEO MEAN” for short) [1] is reported as 1570.

B2: AB016 (antibody, V domains shown)
VH: EVQLVESGGGLVQPGGSLRLSCAASGFSFSSEPISWVRQAPGKGLEWVSSITGKNGYTYYADSVKGRFTISADTSKNTAYLQMNSLRAEDTAVYYCARWGKKVYGMDVWGQGTLVTVSS
VL: DIQMTQSPSSLSASVGDRVTITCRASQSISSYLAWYQQKPGKAPKLLIYGASSRASGVPSRFSGSGSGTDFTLTISSLQPEDFATYYCQQYMSVPITFGQGTKVEIKR
notes: Parent antibody; also called AB016VH; AB016VL
B2 was tested, and the “N-Terminal VD GEO MEAN” value [2] was 15.4.

B3: AB008 (antibody, V domains shown)
VH: QVQLVQSGAEVKKPGSSVKVSCKASGYTFTSYWLHWVRQAPGQGLEWIGYINPRNDYTEYNQNFKDKATITADESTNTAYMELSSLRSEDTAFYFCARRDITTFYWGQGTTVTVSS
VL: DIQLTQSPSSLSASVGDRVTMSCKSSQSVLYSANHKNYLAWYQQKPGKAPKLLIYWASTRESGVPSRFSGSGSGTDFTFTISSLQPEDIATYYCHQYLSSWTFGGGTKLEIKR
notes: Parent antibody; also called AB008VH; AB008VL
With B3 the “N-Terminal VD GEO MEAN” value [3] was 256.

B4: DVD1883 (bispecific antibody, human IgG1, kappa)
heavy: not shown
light: DIQLTQSPSSLSASVGDRVTMSCKSSQSVLYSANHKNYLAWYQQKPGKAPKLLIYWASTRESGVPSRFSGSGSGTDFTFTISSLQPEDIATYYCHQYLSSWTFGGGTKLEIKRTVAAPQIVLIQSPAIMSASPGEKVTMTCSASSSVSYMYWYQQKPGSSPRLLIYDTSNLASGVPVRFSGSGSGTSYSLTISRMEAEDAATYYCQQWSGYPYTFGGGTKLEIKRTVAAPSVFIFPPSDEQLKSGTASVVCLLNNFYPREAKVQWKVDNALQSGNSQESVTEQDSKDSTYSLSSTLTLSKADYEKHKVYACEVTHQGLSSPVTKSFNRGEC
notes: Outer domain anti-CD22 (AB008), inner domain anti-IL-6 (AB040); also called DVD1883H; DVD1883L
With B4 the “N-Terminal VD GEO MEAN” value [3] was 223.

B5: DVD1889 (bispecific antibody, human IgG1, kappa)
heavy: not shown
light: DIQMTQSPSSLSASVGDRVTITCRASQSISSYLAWYQQKPGKAPKLLIYGASSRASGVPSRFSGSGSGTDFTLTISSLQPEDFATYYCQQYMSVPITFGQGTKVEIKRTVAAPQIVLIQSPAIMSASPGEKVTMTCSASSSVSYMYWYQQKPGSSPRLLIYDTSNLASGVPVRFSGSGSGTSYSLTISRMEAEDAATYYCQQWSGYPYTFGGGTKLEIKRTVAAPSVFIFPPSDEQLKSGTASVVCLLNNFYPREAKVQWKVDNALQSGNSQESVTEQDSKDSTYSLSSTLTLSKADYEKHKVYACEVTHQGLSSPVTKSFNRGEC
notes: also called DVD1889H; DVD1889L
For B5, the “N-Terminal VD GEO MEAN” value [2] was 15, the Kd [4] was 0.5 nM and the koff [4] was 0.00019 s⁻¹. For the same binder, the kon [4] was 380000 M⁻¹ s⁻¹.

B6: AB007 (antibody, V domains shown)
VH: QVQLQESGPGLVKPSETLSLTCAVSGGSISGGYGWGWIRQPPGKGLEWIGSFYSSSGNTYYNPSLKSQVTISTDTSKNQFSLKLNSMTAADTAVYYCVRDRLFSVVGMVYNNWFDVWGPGVLVTVSS
VL: ESALTQPPSVSGAPGQKVTISCTGSTSNIGGYDLHWYQQLPGTAPKLLIYDINKRPSGISDRFSGSKSGTAASLAITGLQTEDEADYYCQSYDSSLNAQVFGGGTRLTVLG
notes: Parent antibody; also called AB007VH; AB007VL
In the case of B6, the “N-Terminal VD GEO MEAN” value [5] is reported as 82.5.

B7: DVD1907 (bispecific antibody, human IgG1, kappa)
heavy: not shown
light: DIQMTQSPSSMSVSVGDRVTITCHSSQDINSNIGWLQQKPGKSFKGLIYHGTNLDDGVPSRFSGSGSGTDYTLTISSLQPEDFATYYCVQYAQFPWTFGGGTKLEIKRTVAAPQIVLIQSPAIMSASPGEKVTMTCSASSSVSYMYWYQQKPGSSPRLLIYDTSNLASGVPVRFSGSGSGTSYSLTISRMEAEDAATYYCQQWSGYPYTFGGGTKLEIKRTVAAPSVFIFPPSDEQLKSGTASVVCLLNNFYPREAKVQWKVDNALQSGNSQESVTEQDSKDSTYSLSSTLTLSKADYEKHKVYACEVTHQGLSSPVTKSFNRGEC
notes: also called DVD1907H; DVD1907L
In the case of B7, the “N-Terminal VD GEO MEAN” value [6] is reported as 23.5.

B8: DVD1881 (bispecific antibody, human IgG1, kappa)
heavy: not shown
light: ESALTQPPSVSGAPGQKVTISCTGSTSNIGGYDLHWYQQLPGTAPKLLIYDINKRPSGISDRFSGSKSGTAASLAITGLQTEDEADYYCQSYDSSLNAQVFGGGTRLTVLGQPKAAPQIVLIQSPAIMSASPGEKVTMTCSASSSVSYMYWYQQKPGSSPRLLIYDTSNLASGVPVRFSGSGSGTSYSLTISRMEAEDAATYYCQQWSGYPYTFGGGTKLEIKRTVAAPSVFIFPPSDEQLKSGTASVVCLLNNFYPREAKVQWKVDNALQSGNSQESVTEQDSKDSTYSLSSTLTLSKADYEKHKVYACEVTHQGLSSPVTKSFNRGEC
notes: Outer domain anti-CD80 (AB007), inner domain anti-IL-6 (AB040); also called DVD1881H; DVD1881L
In the case of B8, the “N-Terminal VD GEO MEAN” value [5] is reported as 134.

B9: DVD1879 (bispecific antibody, human IgG1, kappa)
heavy: not shown
light: DILLTQTPASLAVSLGQRATISCKASQSVDYDGDSYLNWYQQIPGQPPKLLIYDASNLVSGIPPRFSGSGSGTDFTLNIHPVEKVDAATYHCQQSTEDPWTFGGGTKLEIKRTVAAPQIVLIQSPAIMSASPGEKVTMTCSASSSVSYMYWYQQKPGSSPRLLIYDTSNLASGVPVRFSGSGSGTSYSLTISRMEAEDAATYYCQQWSGYPYTFGGGTKLEIKRTVAAPSVFIFPPSDEQLKSGTASVVCLLNNFYPREAKVQWKVDNALQSGNSQESVTEQDSKDSTYSLSSTLTLSKADYEKHKVYACEVTHQGLSSPVTKSFNRGEC
notes: Outer domain anti-CD19 (AB006), inner domain anti-IL-6 (AB040); also called DVD1879H; DVD1879L
With B9 the “N-Terminal VD GEO MEAN” value [1] was 1930.
